Source: patent US20210032299A1 (Eli Lilly, published 2021)
Starred links: 1 amine or outer side, 2 acyl side, 3 side chain; linkers in the order of their positions; H or OH if unused. Non-standard residues stand in square brackets, D forms with d. Groups on a side chain read outwards from the residue. No end group written: not given here. *: point of attachment. C20 diacid = O=C(O)CCCCCCCCCCCCCCCCCCC(=O)*; C18 diacid = O=C(O)CCCCCCCCCCCCCCCCC(=O)*; αMePhe(2-F) = C[C@](N)(Cc1ccccc1F)C(=O)O; γGlu = O=C(O)[C@H](CCC(=O)[*:2])N[*:1]; αMeF = C[C@](N)(Cc1ccccc1)C(=O)O; 4Pal = N[C@@H](Cc1ccncc1)C(=O)O; AEEA = NCCOCCOCC(=O)O; Aib = CC(C)(N)C(=O)O

T1: human glucose-dependent insulinotropic polypeptide (GIP) receptor (human, UniProt P48546 22-466)
T1 construct: whole, on cells; Assayed as crude membranes of stably transfected CHO cells; also called hGIPR; human GIP receptor
T1 sequence (looked up): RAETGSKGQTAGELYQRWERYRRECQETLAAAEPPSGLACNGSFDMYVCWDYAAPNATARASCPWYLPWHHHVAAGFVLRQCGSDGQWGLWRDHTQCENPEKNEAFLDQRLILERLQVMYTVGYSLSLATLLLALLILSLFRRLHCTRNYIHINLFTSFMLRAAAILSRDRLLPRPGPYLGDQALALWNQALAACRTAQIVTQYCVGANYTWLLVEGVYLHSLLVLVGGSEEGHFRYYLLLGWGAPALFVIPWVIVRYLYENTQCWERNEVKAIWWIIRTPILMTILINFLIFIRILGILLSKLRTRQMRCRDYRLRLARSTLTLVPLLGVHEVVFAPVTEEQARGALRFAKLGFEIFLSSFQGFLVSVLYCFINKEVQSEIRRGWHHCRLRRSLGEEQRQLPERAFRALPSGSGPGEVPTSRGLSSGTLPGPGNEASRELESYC

B1: Example 39 (peptide)
peptide: Y[Aib]EGT[αMePhe(2-F)]ISDYSIALDKK([AEEA-AEEA-γGlu-C20 diacid])HQ[Aib]DFVE[4Pal]LLEGGPSSGAPPPS-NH2
modifications: N-terminus assumed
SMILES: CC[C@H](C)[C@H](NC(=O)[C@H](CO)NC(=O)[C@H](Cc1ccc(O)cc1)NC(=O)[C@H](CC(=O)O)NC(=O)[C@H](CO)NC(=O)[C@@H](NC(=O)[C@](C)(Cc1ccccc1F)NC(=O)[C@@H](NC(=O)CNC(=O)[C@H](CCC(=O)O)NC(=O)C(C)(C)NC(=O)[C@@H](N)Cc1ccc(O)cc1)[C@@H](C)O)[C@@H](C)CC)C(=O)N[C@@H](C)C(=O)N[C@@H](CC(C)C)C(=O)N[C@@H](CC(=O)O)C(=O)N[C@@H](CCCCN)C(=O)N[C@@H](CCCCNC(=O)COCCOCCNC(=O)COCCOCCNC(=O)CC[C@H](NC(=O)CCCCCCCCCCCCCCCCCCC(=O)O)C(=O)O)C(=O)N[C@@H](Cc1c[nH]cn1)C(=O)N[C@@H](CCC(N)=O)C(=O)NC(C)(C)C(=O)N[C@@H](CC(=O)O)C(=O)N[C@@H](Cc1ccccc1)C(=O)N[C@H](C(=O)N[C@@H](CCC(=O)O)C(=O)N[C@@H](Cc1ccncc1)C(=O)N[C@@H](CC(C)C)C(=O)N[C@@H](CC(C)C)C(=O)N[C@@H](CCC(=O)O)C(=O)NCC(=O)NCC(=O)N1CCC[C@H]1C(=O)N[C@@H](CO)C(=O)N[C@@H](CO)C(=O)NCC(=O)N[C@@H](C)C(=O)N1CCC[C@H]1C(=O)N1CCC[C@H]1C(=O)N1CCC[C@H]1C(=O)N[C@@H](CO)C(N)=O)C(C)C
B2: Example 23 (peptide)
peptide: Y[Aib]EGT[αMeF]ISDYSIALDKK([AEEA-AEEA-γGlu-C18 diacid])HQ[Aib]DFVE[4Pal]LLAGGPSSGAPPPS-NH2
modifications: N-terminus assumed
SMILES: CC[C@H](C)[C@H](NC(=O)[C@H](CO)NC(=O)[C@H](Cc1ccc(O)cc1)NC(=O)[C@H](CC(=O)O)NC(=O)[C@H](CO)NC(=O)[C@@H](NC(=O)[C@](C)(Cc1ccccc1)NC(=O)[C@@H](NC(=O)CNC(=O)[C@H](CCC(=O)O)NC(=O)C(C)(C)NC(=O)[C@@H](N)Cc1ccc(O)cc1)[C@@H](C)O)[C@@H](C)CC)C(=O)N[C@@H](C)C(=O)N[C@@H](CC(C)C)C(=O)N[C@@H](CC(=O)O)C(=O)N[C@@H](CCCCN)C(=O)N[C@@H](CCCCNC(=O)COCCOCCNC(=O)COCCOCCNC(=O)CC[C@H](NC(=O)CCCCCCCCCCCCCCCCC(=O)O)C(=O)O)C(=O)N[C@@H](Cc1c[nH]cn1)C(=O)N[C@@H](CCC(N)=O)C(=O)NC(C)(C)C(=O)N[C@@H](CC(=O)O)C(=O)N[C@@H](Cc1ccccc1)C(=O)N[C@H](C(=O)N[C@@H](CCC(=O)O)C(=O)N[C@@H](Cc1ccncc1)C(=O)N[C@@H](CC(C)C)C(=O)N[C@@H](CC(C)C)C(=O)N[C@@H](C)C(=O)NCC(=O)NCC(=O)N1CCC[C@H]1C(=O)N[C@@H](CO)C(=O)N[C@@H](CO)C(=O)NCC(=O)N[C@@H](C)C(=O)N1CCC[C@H]1C(=O)N1CCC[C@H]1C(=O)N1CCC[C@H]1C(=O)N[C@@H](CO)C(N)=O)C(C)C
B3: Example 38 (peptide)
peptide: Y[Aib]EGT[αMePhe(2-F)]ISDYSIALDKK([AEEA-AEEA-γGlu-C20 diacid])HQ[Aib]DFVE[4Pal]LLETGPSSGAPPPS-NH2
modifications: N-terminus assumed
SMILES: CC[C@H](C)[C@H](NC(=O)[C@H](CO)NC(=O)[C@H](Cc1ccc(O)cc1)NC(=O)[C@H](CC(=O)O)NC(=O)[C@H](CO)NC(=O)[C@@H](NC(=O)[C@](C)(Cc1ccccc1F)NC(=O)[C@@H](NC(=O)CNC(=O)[C@H](CCC(=O)O)NC(=O)C(C)(C)NC(=O)[C@@H](N)Cc1ccc(O)cc1)[C@@H](C)O)[C@@H](C)CC)C(=O)N[C@@H](C)C(=O)N[C@@H](CC(C)C)C(=O)N[C@@H](CC(=O)O)C(=O)N[C@@H](CCCCN)C(=O)N[C@@H](CCCCNC(=O)COCCOCCNC(=O)COCCOCCNC(=O)CC[C@H](NC(=O)CCCCCCCCCCCCCCCCCCC(=O)O)C(=O)O)C(=O)N[C@@H](Cc1c[nH]cn1)C(=O)N[C@@H](CCC(N)=O)C(=O)NC(C)(C)C(=O)N[C@@H](CC(=O)O)C(=O)N[C@@H](Cc1ccccc1)C(=O)N[C@H](C(=O)N[C@@H](CCC(=O)O)C(=O)N[C@@H](Cc1ccncc1)C(=O)N[C@@H](CC(C)C)C(=O)N[C@@H](CC(C)C)C(=O)N[C@@H](CCC(=O)O)C(=O)N[C@H](C(=O)NCC(=O)N1CCC[C@H]1C(=O)N[C@@H](CO)C(=O)N[C@@H](CO)C(=O)NCC(=O)N[C@@H](C)C(=O)N1CCC[C@H]1C(=O)N1CCC[C@H]1C(=O)N1CCC[C@H]1C(=O)N[C@@H](CO)C(N)=O)[C@@H](C)O)C(C)C
B4: Example 42 (peptide)
peptide: Y[Aib]EGT[αMeF]ISDYSIALDKK([AEEA-AEEA-γGlu-C20 diacid])HQ[Aib]DFVE[4Pal]LLEQGPSSGAPPPS-NH2
modifications: N-terminus assumed
SMILES: CC[C@H](C)[C@H](NC(=O)[C@H](CO)NC(=O)[C@H](Cc1ccc(O)cc1)NC(=O)[C@H](CC(=O)O)NC(=O)[C@H](CO)NC(=O)[C@@H](NC(=O)[C@](C)(Cc1ccccc1)NC(=O)[C@@H](NC(=O)CNC(=O)[C@H](CCC(=O)O)NC(=O)C(C)(C)NC(=O)[C@@H](N)Cc1ccc(O)cc1)[C@@H](C)O)[C@@H](C)CC)C(=O)N[C@@H](C)C(=O)N[C@@H](CC(C)C)C(=O)N[C@@H](CC(=O)O)C(=O)N[C@@H](CCCCN)C(=O)N[C@@H](CCCCNC(=O)COCCOCCNC(=O)COCCOCCNC(=O)CC[C@H](NC(=O)CCCCCCCCCCCCCCCCCCC(=O)O)C(=O)O)C(=O)N[C@@H](Cc1c[nH]cn1)C(=O)N[C@@H](CCC(N)=O)C(=O)NC(C)(C)C(=O)N[C@@H](CC(=O)O)C(=O)N[C@@H](Cc1ccccc1)C(=O)N[C@H](C(=O)N[C@@H](CCC(=O)O)C(=O)N[C@@H](Cc1ccncc1)C(=O)N[C@@H](CC(C)C)C(=O)N[C@@H](CC(C)C)C(=O)N[C@@H](CCC(=O)O)C(=O)N[C@@H](CCC(N)=O)C(=O)NCC(=O)N1CCC[C@H]1C(=O)N[C@@H](CO)C(=O)N[C@@H](CO)C(=O)NCC(=O)N[C@@H](C)C(=O)N1CCC[C@H]1C(=O)N1CCC[C@H]1C(=O)N1CCC[C@H]1C(=O)N[C@@H](CO)C(N)=O)C(C)C

How the values were obtained:
[1] = molecular target: T1, human glucose-dependent insulinotropic …; test: SPA, displacement of [125I]-GIP from hGIPR membranes, 0.1% bacitracin
[2] = molecular target: T2, human glucagon receptor (human, UniProt P47871 26-477); test: SPA, displacement of [125I]-Gcg from hGcgR membranes, 0.1% bacitracin
T2 construct: whole, on cells; Assayed as crude membranes of stably transfected HEK293 cells; also called hGcgR; GcgR
T2 sequence (P47871 26-477): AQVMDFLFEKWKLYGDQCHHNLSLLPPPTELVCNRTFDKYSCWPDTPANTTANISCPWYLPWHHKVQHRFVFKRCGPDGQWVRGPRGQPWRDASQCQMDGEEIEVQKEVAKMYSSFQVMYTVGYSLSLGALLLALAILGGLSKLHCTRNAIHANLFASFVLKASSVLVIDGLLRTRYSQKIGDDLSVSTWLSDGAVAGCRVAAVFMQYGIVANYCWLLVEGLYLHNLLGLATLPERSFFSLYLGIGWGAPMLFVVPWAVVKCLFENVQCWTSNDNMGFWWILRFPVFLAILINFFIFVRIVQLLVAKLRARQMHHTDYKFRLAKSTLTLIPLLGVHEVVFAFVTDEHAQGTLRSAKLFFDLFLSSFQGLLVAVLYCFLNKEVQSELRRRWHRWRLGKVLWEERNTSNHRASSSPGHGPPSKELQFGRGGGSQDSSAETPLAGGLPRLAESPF
How it was run: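 Binding buffer: 25 mM HEPES pH 7.4, 2.5 mM CaCl₂, 1 mM MgCl₂, 0.003% Tween-20, protease inhibitors without EDTA. Counted by scintillation after 12 h incubation/settling at room temperature. Four-parameter nonlinear fit; Kᵢ given as geometric mean ± SEM of independent replicates run on different days.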

[3] = molecular target: T3, human GLP-1 receptor (human, UniProt P43220 24-463); test: SPA, displacement of [125I]-GLP-1 from hGLP-1R membranes, 0.1% bacitracin
T3 construct: whole, on cells; Assayed as crude membranes of stably transfected HEK293 cells; also called hGLP1R; hGLP-1R
How it was run: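 Binding buffer: 25 mM HEPES pH 7.4, 2.5 mM CaCl₂, 1 mM MgCl₂, 0.1% bacitracin, 0.003% Tween-20, protease inhibitors without EDTA. Four-parameter nonlinear regression; Kᵢ given as geometric mean ± SEM, n = independent replicates run on different days.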

Row | Binder | Ki [1] [nM] | Ki [2] [nM] | Ki [3] [nM]
1 | B1 | 0.0444 | 76 | 235
2 | B2 | 0.0341 | 323 | 251
3 | B3 | 0.0588 | 182 | 776
4 | B4 | 0.0392 | 99.1 | 563
